Test results published in patent US20100008909A1 (ZymoGenetics, published 2010).
“And” between values parts separate entries of the source, which are not always exact repeats. Equal values may be shown once.

Biological target: T1, biotinylated IL31 (human, UniProt Q6EBC2 24-164, biotinylated (sites not given))
T1 construct: also called human IL-31; huIL-31
T1 sequence: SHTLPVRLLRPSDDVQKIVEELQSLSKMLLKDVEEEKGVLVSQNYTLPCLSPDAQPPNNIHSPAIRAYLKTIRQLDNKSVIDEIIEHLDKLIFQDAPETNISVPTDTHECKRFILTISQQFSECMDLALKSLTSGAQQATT
Test: ELISA with a dilution series of biotinylated IL31, 4-parameter fit (apparent Kd/EC50 as IL31 concentration); parental mouse mAb as control; average of duplicate
Source text: The assay format utilized a goat anti-human Fc immobilization for capture of human monoclonal antibodies from unprocessed cell culture conditioned media. A dilution series of biotinylated IL31 tested the “C” parameter of a 4-parameter fit which results in the apparent Kd (or EC50) in either ng/mL or nM of IL31. The assay sensitivity is high enough that dilute monoclonal antibody or chimeric antibody cell culture conditioned media can be evaluated. The Kd determined by this method generally approaches the Kd measured for purified, homogeneous monoclonal antibodies measured using Biacore.

EC50: 0.0043 µg/mL and 0.26 nM
B1: 292.63.5.3 (Lot E9289) Control monoclonal antibody (antibody, V domains shown)
VH: EVQLVESGGDLVKPGGSLKLSCAASGFTFSTFIMSWVRQSPEKRLEWVATINSGGYYTFHPDSVKGRFTISRDNAKNTLYLQMSSLRSEDTAIYYCARQEGWSSAYFSWGQGTLVTVSA
VL: DIVMTQSPSSLDMSEGQKVTMICKSSQSLLNGSNQKNYLAWYQQKPGQSPKLLVSFASTRDSGVPDRFIGSGSGTDFTLTITNVQAEDLADYFCQQHYDTPYTFGGGKLEIR
notes: Mouse anti-human IL-31 hybridoma monoclonal antibody
